From the supplement of paper PMC7125110
± gives the standard error. For some assays here: Variants at the floor of the assay were thinned out.

B1: glmS ribozyme (parent)
chain: AUAAAAGCGCCAGAACUACAGAAAUGUAGUUGACGAGGAGGAGGUUUAUCGAAUUUUCGGCGGAUGCCUCCAAA

Legend:
Settings in all cases: with glucosamine-6-phosphate
glucosamine-6-phosphate [1] = variants of: B1; assay: kcat; higher = faster cleavage; RNA array
Outline: (§1)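 Ribozyme variants carrying barcodes were transcribed in situ on sequenced MiSeq chips by E. coli RNA polymerase and tracked at 37 °C with a hybridised Cy3 probe. They were exposed to 40 μM to 10 mM glucosamine-6-phosphate in HEPES/KCl/Mg(OAc)2 buffer. kobs came from exponential decay fits of normalised per-tile medians, and kcat and KM from weighted Michaelis–Menten fits.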

glucosamine-6-phosphate [2] = variants of: B1; assay: KM; higher = weaker cofactor use; RNA array
Outline: as §1

glucosamine-6-phosphate [3] = variants of: B1; assay: self-cleavage kobs at 10000 uM GlcN6P; higher = faster cleavage; RNA array
Outline: as §1

glucosamine-6-phosphate [4] = variants of: B1; assay: self-cleavage kobs at 160 uM GlcN6P; higher = faster cleavage; RNA array
Outline: as §1

glucosamine-6-phosphate [5] = variants of: B1; assay: self-cleavage kobs at 640 uM GlcN6P; higher = faster cleavage; RNA array
Outline: as §1

glucosamine-6-phosphate [6] = variants of: B1; assay: self-cleavage kobs at 2500 uM GlcN6P; higher = faster cleavage; RNA array
Outline: as §1

glucosamine-6-phosphate [7] = variants of: B1; assay: self-cleavage kobs at 40 uM GlcN6P; higher = faster cleavage; RNA array
Outline: as §1

Variant | kcat (glucosamine-6-phosphate [1]) | KM (glucosamine-6-phosphate [2]) | self-cleavage kobs at 10000 uM GlcN6P (glucosamine-6-phosphate [3]) | self-cleavage kobs at 160 uM GlcN6P (glucosamine-6-phosphate [4]) | self-cleavage kobs at 640 uM GlcN6P (glucosamine-6-phosphate [5]) | self-cleavage kobs at 2500 uM GlcN6P (glucosamine-6-phosphate [6]) | self-cleavage kobs at 40 uM GlcN6P (glucosamine-6-phosphate [7])
AUAAAAGCGCCAGAACUACAGAAAUGUAGUUAACGAGGAGGAGGUUUAUCGAAUUUUCGCCGGAUGCCUCCAAA [G32A G60C] | < 1e-05 s⁻¹ | 183 ± 55 µM | < 1e-05 s⁻¹ |  |  |  | 
AUAAAAGCGCCAGAACUACAGAAAUGUAGUUGACGAGGAGGAGGUUUAGCGAUUUUUCGGCGGAUGCCUCCAAA [U49G A53U] | 0.00103 ± 0.00011 s⁻¹ | 4490 ± 760 µM | 0.000709 ± 8.3e-05 s⁻¹ | 2.84e-05 ± 8.8e-06 s⁻¹ | 0.00014 ± 1.9e-05 s⁻¹ | 0.000364 ± 5.6e-05 s⁻¹ | 
AUAAAAGCGCCAGAACUACAGAAAUGUAGUUGACGGGGAGGAGGAUUAUCGAAUUUUCGGCGGAUGCCUCCAAA [A36G U45A] | 3.07e-05 ± 8.9e-06 s⁻¹ |  |  |  |  |  | 
AUAAAAGCGCCAGAACUACAGAAAUGUAGUUGACGAGGAGGAGGGUUUUCGAAUUUUCGGCGGAUGCCUCCAAA [U45G A48U] | 0.000351 ± 8.1e-05 s⁻¹ | 3040 ± 1200 µM | 0.000246 ± 5.7e-05 s⁻¹ |  | 5.51e-05 ± 1.4e-05 s⁻¹ | 0.000209 ± 4.5e-05 s⁻¹ | 
AUAAAAGCGCCAGAACUACAGAAAUGUAGUUGACGAGGAGGAGGUUGAGCGAAUUUUCGGCGGAUGCCUCCAAA [U47G U49G] | 8.66e-05 ± 9.3e-06 s⁻¹ |  | 8.15e-05 ± 1.2e-05 s⁻¹ |  |  |  | 
AUAAAAGCGCCAGAGCUACAGAAAUGUAGUUGACGAGGAGGAGGUUUAUCGCAUUUUCGGCGGAUGCCUCCAAA [A15G A52C] | 2.96e-05 ± 2e-06 s⁻¹ | 1090 ± 400 µM | 2.66e-05 ± 9.9e-06 s⁻¹ |  |  |  | < 1e-05 s⁻¹
AUAAAAGCGCCAGAACUACAGAAAUGUAGUUGACGAGGAGGAGGUUUACCGAAUUUUCGGCGGAUGCCUCAAAA [U49C C71A] | < 1e-05 s⁻¹ |  |  |  | < 1e-05 s⁻¹ |  | < 1e-05 s⁻¹
AUAAAAGCGCCAGAACUACAGAAAUGUAGUUGACGAGGAGGAGGAUUAUCGAGUUUUCGGCGGAUGCCUCCAAA [U45A A53G] | 0.0342 ± 0.011 s⁻¹ | 692 ± 270 µM | 0.0473 ± 0.012 s⁻¹ | 0.00536 ± 0.0026 s⁻¹ | 0.0131 ± 0.0026 s⁻¹ |  | 0.002 ± 0.00022 s⁻¹
AUAAAAGCGCCAGAACUACAGAAAUGUAGUUGACGAGGAGGAGGUUUAUCGAAUUUUCGGCGGACGCCGCCAAA [U65C U69G] | 4.17e-05 ± 1.1e-05 s⁻¹ |  |  |  |  | 5.5e-05 ± 2.3e-05 s⁻¹ | 
AUAAAAGCGCCAAAACUACAGAAAUGUAGUUGACGAGGAGGAGGUUUAUCGAAUUAUCGGCGGGUGCCUCCAAA [G13A U56A A64G] | 0.000331 ± 5.8e-05 s⁻¹ | 2310 ± 840 µM | 0.000291 ± 6.6e-05 s⁻¹ |  | 8.33e-05 ± 2.5e-05 s⁻¹ | 0.000158 ± 3e-05 s⁻¹ | 
AUAAAAGCGCCAGAACUACAGAAAUGUAGUUGACGAGGAGGAGGUUUAGCGACUUUUCGGCGGAUGCCUCCAAA [U49G A53C] | 0.000546 ± 0.00023 s⁻¹ |  | 0.000368 ± 8.5e-05 s⁻¹ |  | 7.82e-05 ± 2.4e-05 s⁻¹ | 0.000369 ± 6.4e-05 s⁻¹ | 
AUAAAAGCGCCAGAACUACAGAAAUGUACUUGACGAGGAGGAGGUUUAUCGAAUUUUCGGCGGAGGCCUCCAAA [G29C U65G] | 0.00083 ± 0.00013 s⁻¹ | 4400 ± 1000 µM | 0.000591 ± 0.00015 s⁻¹ |  | 0.000115 ± 2.7e-05 s⁻¹ | 0.000279 ± 7.3e-05 s⁻¹ | 
AUAAAAGCGCCAGAACUACAGAAAUGUAGUUGACGAGGAGACGGUUUAUCGAAUUUUCGGCGGAUGCCUCCAAA [G41A A42C] | 4.51e-05 ± 1.7e-05 s⁻¹ |  | 3.53e-05 ± 1.3e-05 s⁻¹ |  |  | 6.51e-05 ± 1.8e-05 s⁻¹ | 
AUAAAAGCGCCUGAACUACAGAAAUGUAGUUGACGAGGAGGAGUUUGAUCGAAUUUUCGGCGGAUGCCUCCAAA [A12U G44U U47G] | 1.54e-05 ± 2.4e-06 s⁻¹ |  |  |  |  |  | 
AUAAAAGCGCCAGAACUACAGAAAUGUAGUAGACGAGGAGGAGGUUUAUCGAAUUGUCGGCGGAUGCCUCCAAA [U31A U56G] | 0.0146 ± 0.0054 s⁻¹ | 2950 ± 1500 µM | 0.0132 ± 0.0039 s⁻¹ | 0.000532 ± 0.00021 s⁻¹ | 0.00335 ± 0.00098 s⁻¹ | 0.00579 ± 0.0015 s⁻¹ | 0.000249 ± 5.8e-05 s⁻¹
AUAAAAGCGCCAGAACUACAGAAAUGUAGUUGACGAGGAGGAGGUUUAUCGAAUUUUUGGCGGAUGCCUACAAA [C58U C70A] | 2.29e-05 ± 6.9e-06 s⁻¹ |  |  |  | 3.84e-05 ± 1.4e-05 s⁻¹ |  | 
AUAAAAGCGCCAAAACUACAGAAAUGUAGUUGACGAGGAGGAGGUUUAUAGAAUUUUCGGCGGAUGCCUCCAAA [G13A C50A] | < 1e-05 s⁻¹ |  | < 1e-05 s⁻¹ |  |  |  | < 1e-05 s⁻¹
AUAAAAGCGCCACAACUACAGAAAUGUAGUUGACGAGGAGGAGGUUUAUCGAAUUUUCGGCGGAUGCCUCGAAA [G13C C71G] | 2.45e-05 ± 2.8e-06 s⁻¹ |  |  |  |  |  | 
AUAAAAGCGCCUGAACUACAGAAAUGUAGUUGACGAGGAGGAAGUUUAUCGAAUUUUCGGCGGAUGCCUCCAAA [A12U G43A] | 0.000218 ± 2.6e-05 s⁻¹ | 2010 ± 540 µM | 0.000173 ± 2.2e-05 s⁻¹ |  | 4.88e-05 ± 1e-05 s⁻¹ | 0.000139 ± 1.8e-05 s⁻¹ | 
AUAAAAGCGCCAGAACUACAGAAAUGUAGUUGACGAGGAGGAGGUUUAUCGAAUUUUAGGCGGAUGCAUCCAAA [C58A C68A] | 3.68e-05 ± 1.1e-05 s⁻¹ |  |  | 4.01e-05 ± 1.7e-05 s⁻¹ | 5.26e-05 ± 1.6e-05 s⁻¹ | 3.75e-05 ± 1.7e-05 s⁻¹ | 
AUAAAAGCGCCAGAACUACAGAAAUGUAGUUGACGAGGAGGAGGUGUAUCGUAUUUUCGGCGGAUGCCUCCAAA [U46G A52U] | 0.000165 ± 1.2e-05 s⁻¹ |  | 7.51e-05 ± 2.1e-05 s⁻¹ | < 1e-05 s⁻¹ |  | 2.87e-05 ± 1.3e-05 s⁻¹ | < 1e-05 s⁻¹
